Among the data in publication PMC8786796 are NF-κB::eGFP expression in Jurkat JE6-1 reporter cells (endogenous TLR5), flagellin titrated, 24 h, flow cytometry; lowest concentration giving detectable eGFP and limit of detection (concentration giving a 1.5-fold increase of eGFP) in JE6-1 TLR5 NF-κB::eGFP reporter cells, flagellin titrated values, retold here.

The target of assay [1] is TLR5 (endogenous, on Jurkat JE6-1 NF-κB::eGFP reporter cells) (human (endogenous in Jurkat JE6-1)) (UniProt O60602).
The target is the same in assay [2]. This is another data set of the same source.

UniProt O60602, sequence (O60602 21-858): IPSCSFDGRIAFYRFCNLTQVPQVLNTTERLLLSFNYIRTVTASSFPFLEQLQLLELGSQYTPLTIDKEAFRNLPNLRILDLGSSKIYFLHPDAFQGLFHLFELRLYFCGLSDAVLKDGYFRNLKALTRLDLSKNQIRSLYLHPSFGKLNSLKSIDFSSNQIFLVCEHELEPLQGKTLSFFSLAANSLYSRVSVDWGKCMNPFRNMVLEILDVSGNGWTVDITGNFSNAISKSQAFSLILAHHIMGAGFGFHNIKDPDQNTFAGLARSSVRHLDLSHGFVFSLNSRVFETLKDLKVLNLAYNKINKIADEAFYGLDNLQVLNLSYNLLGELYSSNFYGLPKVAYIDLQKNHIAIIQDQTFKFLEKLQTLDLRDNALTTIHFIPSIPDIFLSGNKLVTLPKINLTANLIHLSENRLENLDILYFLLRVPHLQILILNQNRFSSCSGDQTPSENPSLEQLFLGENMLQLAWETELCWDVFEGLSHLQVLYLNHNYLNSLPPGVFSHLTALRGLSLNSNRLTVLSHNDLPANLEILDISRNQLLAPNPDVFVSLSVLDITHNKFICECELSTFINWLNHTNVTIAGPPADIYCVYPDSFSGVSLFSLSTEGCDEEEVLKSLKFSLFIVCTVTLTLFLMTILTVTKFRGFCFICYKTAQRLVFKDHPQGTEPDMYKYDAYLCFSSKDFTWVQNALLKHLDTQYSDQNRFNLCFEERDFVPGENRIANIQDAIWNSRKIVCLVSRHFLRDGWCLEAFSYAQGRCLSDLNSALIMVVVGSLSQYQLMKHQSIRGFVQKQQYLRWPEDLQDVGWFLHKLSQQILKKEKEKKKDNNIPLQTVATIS

For “flagellin purified from S. typhimurium (Fla-ST standard and Fla-ST ultrapure) (from UniProt P06179 1-495) (ligand)”, the NF-κB::eGFP expression in Jurkat JE6-1 reporter cells (endogenous TLR5), flagellin titrated, 24 h, flow cytometry; lowest concentration giving detectable eGFP in assay [1] was less than 100 pg/mL. The same substance returned a limit of detection (concentration giving a 1.5-fold increase of eGFP) in JE6-1 TLR5 NF-κB::eGFP reporter cells, flagellin titrated in assay [2] of 10 pg/mL.
